From paper PMC6514445, “Enterococcal PcfF Is a Ribbon-Helix-Helix Protein That Recruits the Relaxase PcfG Through Binding and Bending of the oriT Sequence” (Frontiers in Microbiology, 2019)
Changes are numbered by the printed parent chain. Names may count otherwise.

Tests used:
[1] = biological target: PcfF1-54 (RHH domain, GST tag cleaved off) (Enterococcus faecalis (plasmid pCF10)) (UniProt Q5G3N6); assay: SEC; Superdex 75 10/300 GL with molecular mass standards; PcfF1-54 after GST cleavage, absorbance at 254 nm
[2] = biological target: the molecule itself; assay: GEMMA (gas-phase electrophoretic mobility macromolecule analysis); SEC peak of wild type PcfF dialysed against 100 mM ammonium acetate pH 7.8, diluted to 0.025 mg/mL with 0.005% Tween-20
[3] = biological target: the molecule itself; assay: SEC; Superdex 200 10/300 GL Increase; 20 mM Tris/HCl pH 7.5, 200 mM NaCl; PcfF and its variants, self-association
[4] = biological target: the molecule itself; assay: crystal structure; SeMet-PcfF, sitting drop at 20°C, 0.2 M lithium sulfate, 0.1 M Bis-Tris pH 6.5, 25% PEG 3350; space group P2_(1), 4 molecules in the asymmetric unit; 1.9 Å
PcfF R13L = PcfF R13L (Enterococcus faecalis plasmid pCF10, UniProt Q5G3N6 1-118, R13L); assay: EMSA; 100 nM protein; Results also say marked decrease; EMSA: 30 nM DNA, 10 mM Tris/HCl pH 7.5, 200 mM NaCl (150 mM NaCl with PcfG), 15 min at room temperature; 20% native PAGE in TAE pH 8.0 at 4 C; details: protein: recombinant; chain copies: 2; label: 5' FITC on sense strand
PcfF R13L/I14A = PcfF R13L/I14A (Enterococcus faecalis plasmid pCF10, UniProt Q5G3N6 1-118, R13L;I14A); assay: as above; details: protein: recombinant; chain copies: 2; label: 5' FITC on sense strand
PcfF [5] = biological target: T1, PcfF (Enterococcus faecalis plasmid pCF10, UniProt Q5G3N6 1-118); assay: EMSA; EMSA: 30 nM DNA, 10 mM Tris/HCl pH 7.5, 200 mM NaCl (150 mM NaCl with PcfG), 15 min at room temperature; 20% native PAGE in TAE pH 8.0 at 4 C; details: protein: recombinant; tags: N-terminal GST, 3C-cleaved (4 extra residues left); chain copies: 2; label: 5' FITC on sense strand
T1 sequence: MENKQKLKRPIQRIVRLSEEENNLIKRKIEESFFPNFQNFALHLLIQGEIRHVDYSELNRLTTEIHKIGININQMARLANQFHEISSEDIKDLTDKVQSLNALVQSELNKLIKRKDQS

PcfF I70S/R77S = PcfF I70S/R77S (Enterococcus faecalis plasmid pCF10, UniProt Q5G3N6 1-118, I70S;R77S); assay: EMSA; 100 nM protein; as wild type; EMSA: 30 nM DNA, 10 mM Tris/HCl pH 7.5, 200 mM NaCl (150 mM NaCl with PcfG), 15 min at room temperature; 20% native PAGE in TAE pH 8.0 at 4 C; details: protein: recombinant; chain copies: 2; label: 5' FITC on sense strand
PcfF N73A/Q74A = PcfF N73A/Q74A (Enterococcus faecalis plasmid pCF10, UniProt Q5G3N6 1-118, N73A;Q74A); assay: as above; details: protein: recombinant; chain copies: 2; label: 5' FITC on sense strand
PcfF R77S = PcfF R77S (Enterococcus faecalis plasmid pCF10, UniProt Q5G3N6 1-118, R77S); assay: as above; details: protein: recombinant; chain copies: 2; label: 5' FITC on sense strand
PcfF I70S = PcfF I70S (Enterococcus faecalis plasmid pCF10, UniProt Q5G3N6 1-118, I70S); assay: as above; details: protein: recombinant; chain copies: 2; label: 5' FITC on sense strand
PcfF [6] = biological target: T1, PcfF; assay: EMSA (DNA bending); EMSA: 30 nM DNA, 10 mM Tris/HCl pH 7.5, 200 mM NaCl (150 mM NaCl with PcfG), 15 min at room temperature; 20% native PAGE in TAE pH 8.0 at 4 C; details: protein: recombinant; tags: N-terminal GST, 3C-cleaved (4 extra residues left); chain copies: 2
PcfF [7] = biological target: T1, PcfF; assay: EMSA (DNA bending); more pronounced shift than end positions; bending; EMSA: 30 nM DNA, 10 mM Tris/HCl pH 7.5, 200 mM NaCl (150 mM NaCl with PcfG), 15 min at room temperature; 20% native PAGE in TAE pH 8.0 at 4 C; details: protein: recombinant; tags: N-terminal GST, 3C-cleaved (4 extra residues left); chain copies: 2

PcfF1-54 (RHH domain, GST tag cleaved off) (from UniProt Q5G3N6 1-54) (domain or fragment)
stoichiometry N [1]: 2

B1: PcfF (wild type, full length, GST tag cleaved off) (natural protein)
chain: T1 sequence
notes: PcfF accessory factor encoded by plasmid pCF10 of Enterococcus faecalis; GenBank AAW51324; 118 residues, 14 kDa; Cloned in pGEX-6P-2 (BamHI/XhoI); the same is likely here; also called wt PcfF; accessory factor PcfF; source: E. coli BL21(DE3), purified (glutathione-agarose, SEC, 3C protease cleavage, second SEC, reverse purification); not shown: GST, N-terminal, cleaved
stoichiometry N [2]: ~2

B2: PcfF R13L/I14A (natural protein)
chain: T1 sequence with R13L, I14A
notes: PcfF of plasmid pCF10, Enterococcus faecalis; GenBank AAW51324; 118 residues; source: E. coli BL21(DE3), purified (glutathione-agarose, SEC)
binding result [3]: binds

B3: PcfF R13L/I14A/R16L (natural protein)
chain: T1 sequence with R13L, I14A, R16L
notes: as for B2
binding result [3]: binds

B4: PcfF N73A/Q74A (as run on SEC) (natural protein)
chain: T1 sequence with N73A, Q74A
notes: as for B2
binding result [3]: binds

B5: PcfF Q105W (natural protein)
chain: T1 sequence with Q105W
notes: PcfF of plasmid pCF10, Enterococcus faecalis; GenBank AAW51324; 118 residues; also called PcfF_(Q105A/W) variants; source: E. coli BL21(DE3), purified (glutathione-agarose, SEC)
binding result [3]: binds

B6: PcfF R13L/R16L (natural protein)
chain: T1 sequence with R13L, R16L
notes: as for B2
binding result [3]: binds

B7: PcfF R13L (natural protein)
chain: T1 sequence with R13L
notes: as for B2
binding result [3]: binds

B8: PcfF I70S (as run on SEC) (natural protein)
chain: T1 sequence with I70S
notes: as for B2
binding result [3]: binds

B9: PcfF I70S/R77S (as run on SEC) (natural protein)
chain: T1 sequence with I70S, R77S
notes: as for B2
binding result [3]: binds

B10: Selenomethionine-derivatized PcfF (full length) (natural protein)
chain: T1 sequence
modifications: selenomethionine in place of methionine
notes: PcfF accessory factor encoded by plasmid pCF10 of Enterococcus faecalis; GenBank AAW51324; 118 residues; Probably with the GST cleaved off, as for the wild type; 4 molecules in the asymmetric unit (dimer of dimers); also called SeMet-PcfF; source: E. coli BL21(DE3) in M9 minimal medium with L-selenomethionine, purified as wild type PcfF with 0.5 mM TCEP
binding result [4]: binds

B11: PcfF Q105A (natural protein)
chain: T1 sequence with Q105A
notes: as for B5
binding result [3]: binds

B12: PcfF R77S (as run on SEC) (natural protein)
chain: T1 sequence with R77S
notes: as for B2
binding result [3]: binds

B13: PcfF I14A (natural protein)
chain: T1 sequence with I14A
notes: as for B2
binding result [3]: binds

B14: PcfF R16L (natural protein)
chain: T1 sequence with R16L
notes: as for B2
binding result [3]: binds

B15: oriT 40 bp (dsDNA)
DNA 1: TCGCAACATGCTAGCATGTTGCTCCGCTTGCAAAAAGAAA
DNA 2: TTTCTTTTTGCAAGCGGAGCAACATGCTAGCATGTTGCGA
binding result (PcfF R13L): no binding
binding result (PcfF R13L/I14A): no binding
Kd (PcfF [5]): ~100 nM
binding result (PcfF I70S/R77S): binds
binding result (PcfF N73A/Q74A): binds
binding result (PcfF R77S): binds
binding result (PcfF I70S): binds

B16: random 44 bp DNA (dsDNA)
DNA 1: AGTGAACTGAAAGAAGAAACACACGTTGCATGAAGAGCTATATA
DNA 2: TATATAGCTCTTCATGCAACGTGTGTTTCTTCTTTCAGTTCACT
binding result (PcfF [5]): no binding

B17: oriT 3' 120 bp (dsDNA)
DNA 1: GTCTCGAGTTTAAAGATATCCAGCTGCCCGGGAGGCCTTCGCGAAATATTGGTACCCCATGGAATCGAGGGATCCTCTAGTCGCAACATGCTAGCATGTTGCTCCGCTTGCAAAAAGAAA
DNA 2: TTTCTTTTTGCAAGCGGAGCAACATGCTAGCATGTTGCGACTAGAGGATCCCTCGATTCCATGGGGTACCAATATTTCGCGAAGGCCTCCCGGGCAGCTGGATATCTTTAAACTCGAGAC
binding result (PcfF [6]): binds

B18: oriT middle 120 bp (dsDNA)
DNA 1: GCGAAATATTGGTACCCCATGGAATCGAGGGATCCTCTAGTCGCAACATGCTAGCATGTTGCTCCGCTTGCAAAAAGAAAAGTCGACACGCGTAGATCTGCTAGCATCGATCCATGGACT
DNA 2: AGTCCATGGATCGATGCTAGCAGATCTACGCGTGTCGACTTTTCTTTTTGCAAGCGGAGCAACATGCTAGCATGTTGCGACTAGAGGATCCCTCGATTCCATGGGGTACCAATATTTCGC
binding result (PcfF [7]): binds
